{"source": "paper PMC5115829", "about": "“Digitor/dASCIZ Has Multiple Roles in Drosophila Development” (PLoS ONE, 2016)", "molecular_target": "T1, His-tagged COOH-terminal fragment of Digitor containing the six TQT motifs (amino acids 256 to 388) (Drosophila, UniProt Q9VZU1 256-388)", "T1 construct": "Digitor/dASCIZ (CG14962), Drosophila, residues 256-388, holds the six TQT motifs; full length is aa 1-388; Purification is not described; 10 ug amounts are stated; also called Digitor-His; His-Digitor; source: expressed in BL21 cells (pET28a)", "T1 sequence (looked up)": "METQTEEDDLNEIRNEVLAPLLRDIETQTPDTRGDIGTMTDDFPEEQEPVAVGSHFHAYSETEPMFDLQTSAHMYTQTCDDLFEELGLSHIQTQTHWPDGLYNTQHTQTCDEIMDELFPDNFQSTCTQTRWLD", "assay": "pull-down; MBP-Cut up or MBP alone bound to amylose resin, incubated with His-tagged Digitor in 1X PBS pH 7.4, 4 hr, 4°C; 5 washes; immunoblot with anti-His antibody", "conditions": "both partners purified", "data": [{"binder": "full length Cut up MBP fusion protein (amino acids 1-89) (natural protein, Drosophila, UniProt Q24117 1-89, looked up, Cut up, the Dynein light chain (DYNLL1 homolog) of Drosophila, full-length cDNA encoding amino acids 1-89; Purification is not described; 10 ug amounts are stated; also called MBP-Cut-up; MBP-Cut up; source: expressed in BL21 cells (pMAL-C2X)) MSDRKAVIKNADMSEEMQQDAVDCATQALEKYNIEKDIAAYIKKEFDKKYNPTWHCIVGRNFGSYVTHETRHFIYFYLGQVAILLFKSG", "values": [{"measurement": "binding result", "result": "binds"}]}]}
